Assay results taken from the supplement of paper PMC10126150.
± gives the standard deviation of the averaged measurements.

System: ATP
Assay: switch fluorescence ratio, 500 uM ATP over buffer (Cy3 cluster intensity, sum of 5 cycles each) (fold (ratio)); higher = stronger signal-on switching upon ATP binding; sequences stand for … in TCGTCGGCAGCGTCAGATGTGTATAAGAGACAGTTTTTTTTTTTTTTTTTTTTTTTTT…TC
Conditions: aptamer strand: ATP DNA aptamer (quencher-CACCTGGGGGAGTATTGCGGAGGAAGG + anchor), 100 nM annealed; ATP concentration: 500 uM
Outline: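 Clusters with intensities outside 100-1000 RFU were excluded. The remaining Cy3-labelled switching-strand clusters on a modified Illumina MiSeq flow-cell had been annealed to 100 nM quencher-labelled ATP aptamer and imaged in selection buffer, then after 15 min with 500 uM ATP at 22 °C, for five cycles separated by NaOH stripping and re-annealing. The fluorescence ratio, averaged per switch-domain sequence, is each cluster's summed target-cycle Cy3 intensity over its summed buffer-cycle Cy3 intensity.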
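Also: ATP exposure 15 min at 22 °C before imaging.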

With AATTGGTCGT as the sequence, how does the switch fluorescence ratio read?
The switch fluorescence ratio was 0.965 ± 0.043.

How did the switch fluorescence ratio turn out when AATTGTAAGA was run?
The switch fluorescence ratio was 0.992 ± 0.025.

AATTGTAGGT was tested. Which switch fluorescence ratio did it give?
Its switch fluorescence ratio is 0.9731 ± 0.0046.

How did the switch fluorescence ratio turn out when AATTGTAGTA was run?
The switch fluorescence ratio was 0.996 ± 0.051.

Which switch fluorescence ratio does the source give for AATTGTTCGT here?
Its switch fluorescence ratio is 0.98 ± 0.036.

How did the switch fluorescence ratio turn out when AATTGTTGTC was run?
Its switch fluorescence ratio is 0.985 ± 0.01.

AATTTCGCTT was tested. Which switch fluorescence ratio did it give?
Its switch fluorescence ratio is 1 ± 0.037.

AATTTCTGGG was tested. Which switch fluorescence ratio did it give?
The switch fluorescence ratio was 1.06 ± 0.058.

How did the switch fluorescence ratio turn out when AATTTGACCC was run?
The switch fluorescence ratio was 0.9966 ± 0.0026.

With AATTTGATTC as the sequence, how does the switch fluorescence ratio read?
Its switch fluorescence ratio is 1.02 ± 0.058.

How did the switch fluorescence ratio turn out when AATTTGGTTT was run?
Its switch fluorescence ratio is 1.02 ± 0.021.

With AATTTGTAGG as the sequence, how does the switch fluorescence ratio read?
The switch fluorescence ratio was 1 ± 0.02.

For AATTTGTGTT, which switch fluorescence ratio is on record?
Its switch fluorescence ratio is 0.992 ± 0.01.

For AATTTTAACA, which switch fluorescence ratio is on record?
The switch fluorescence ratio was 1 ± 0.016.

With AATTTTACGG as the sequence, how does the switch fluorescence ratio read?
Its switch fluorescence ratio is 1.07 ± 0.024.

How did the switch fluorescence ratio turn out when AATTTTAGTA was run?
The switch fluorescence ratio was 1.02 ± 0.019.

AATTTTAGTC was tested. Which switch fluorescence ratio did it give?
Its switch fluorescence ratio is 0.994 ± 0.04.

For AATTTTCAGA, which switch fluorescence ratio is on record?
The switch fluorescence ratio was 1.03 ± 0.019.

Which switch fluorescence ratio does the source give for AATTTTGGTG here?
The switch fluorescence ratio was 0.998 ± 0.047.

For AATTTTTAGT, which switch fluorescence ratio is on record?
The switch fluorescence ratio was 0.981 ± 0.024.

How did the switch fluorescence ratio turn out when AATTTTTCGC was run?
Its switch fluorescence ratio is 0.98 ± 0.024.

AATTTTTGAG was tested. Which switch fluorescence ratio did it give?
The switch fluorescence ratio was 0.988 ± 0.024.

With AATTTTTGTT as the sequence, how does the switch fluorescence ratio read?
Its switch fluorescence ratio is 1 ± 0.029.

With ACAAATTGTT as the sequence, how does the switch fluorescence ratio read?
The switch fluorescence ratio was 1.09 ± 0.069.

How did the switch fluorescence ratio turn out when ACAACCAGGA was run?
The switch fluorescence ratio was 1.737 ± 0.00071.

For ACAACCGGGG, which switch fluorescence ratio is on record?
Its switch fluorescence ratio is 1.37 ± 0.029.

For ACAACGCGT, which switch fluorescence ratio is on record?
Its switch fluorescence ratio is 0.982 ± 0.013.

For ACAAGACTTA, which switch fluorescence ratio is on record?
The switch fluorescence ratio was 1.04 ± 0.018.

How did the switch fluorescence ratio turn out when ACAAGATCGG was run?
The switch fluorescence ratio was 1.0072 ± 0.00016.

With ACAAGGGAAG as the sequence, how does the switch fluorescence ratio read?
The switch fluorescence ratio was 0.988 ± 0.015.

ACAAGTGGAC was tested. Which switch fluorescence ratio did it give?
The switch fluorescence ratio was 1.033 ± 0.0026.

For ACAAGTGTGC, which switch fluorescence ratio is on record?
Its switch fluorescence ratio is 1.04 ± 0.018.

For ACAAGTTTAA, which switch fluorescence ratio is on record?
The switch fluorescence ratio was 0.997 ± 0.025.

How did the switch fluorescence ratio turn out when ACAATAATAT was run?
Its switch fluorescence ratio is 1 ± 0.028.

How did the switch fluorescence ratio turn out when ACAATCTCTT was run?
Its switch fluorescence ratio is 1.02 ± 0.025.

Which switch fluorescence ratio does the source give for ACAATGCTTT here?
Its switch fluorescence ratio is 1.03 ± 0.017.

Which switch fluorescence ratio does the source give for ACAATTGATG here?
The switch fluorescence ratio was 1 ± 0.04.

How did the switch fluorescence ratio turn out when ACACAGGCTA was run?
The switch fluorescence ratio was 1.027 ± 0.005.

For ACACAGTGCT, which switch fluorescence ratio is on record?
The switch fluorescence ratio was 1 ± 0.011.

With ACACTTAAGT as the sequence, how does the switch fluorescence ratio read?
The switch fluorescence ratio was 1.02 ± 0.029.

For ACACTTGCCA, which switch fluorescence ratio is on record?
Its switch fluorescence ratio is 1.09 ± 0.019.

For ACAGAAATGG, which switch fluorescence ratio is on record?
The switch fluorescence ratio was 1.014 ± 0.0011.

With ACAGACCTAA as the sequence, how does the switch fluorescence ratio read?
The switch fluorescence ratio was 1.14 ± 0.013.

Which switch fluorescence ratio does the source give for ACAGACTCGC here?
Its switch fluorescence ratio is 1.01 ± 0.019.

For ACAGACTGAA, which switch fluorescence ratio is on record?
Its switch fluorescence ratio is 1.16 ± 0.019.

ACAGATACAG was tested. Which switch fluorescence ratio did it give?
The switch fluorescence ratio was 1.07 ± 0.025.

With ACAGATGGAA as the sequence, how does the switch fluorescence ratio read?
Its switch fluorescence ratio is 1.005 ± 0.0068.

For ACAGATGGGG, which switch fluorescence ratio is on record?
Its switch fluorescence ratio is 1.01 ± 0.015.

With ACAGATTAGT as the sequence, how does the switch fluorescence ratio read?
The switch fluorescence ratio was 1 ± 0.024.

How did the switch fluorescence ratio turn out when ACAGCAGGGC was run?
The switch fluorescence ratio was 1.07 ± 0.07.

For ACAGCTGTTA, which switch fluorescence ratio is on record?
The switch fluorescence ratio was 1.02 ± 0.019.

For ACAGGACTTA, which switch fluorescence ratio is on record?
The switch fluorescence ratio was 1.09 ± 0.021.

For ACAGGAGGGG, which switch fluorescence ratio is on record?
The switch fluorescence ratio was 1.04 ± 0.018.

For ACAGGATACA, which switch fluorescence ratio is on record?
Its switch fluorescence ratio is 1.14 ± 0.078.

Which switch fluorescence ratio does the source give for ACAGGGAGGG here?
The switch fluorescence ratio was 1.02 ± 0.015.

For ACAGGGGCGG, which switch fluorescence ratio is on record?
Its switch fluorescence ratio is 1.008 ± 0.006.

ACAGGGGGAA was tested. Which switch fluorescence ratio did it give?
The switch fluorescence ratio was 1.01 ± 0.024.

For ACAGGGGTGT, which switch fluorescence ratio is on record?
The switch fluorescence ratio was 1.09 ± 0.014.

With ACAGGTACAT as the sequence, how does the switch fluorescence ratio read?
Its switch fluorescence ratio is 1.12 ± 0.034.

With ACAGTACTTG as the sequence, how does the switch fluorescence ratio read?
The switch fluorescence ratio was 1.292 ± 0.0098.

Which switch fluorescence ratio does the source give for ACAGTACTTT here?
The switch fluorescence ratio was 1.26 ± 0.019.

Which switch fluorescence ratio does the source give for ACAGTAGTAG here?
Its switch fluorescence ratio is 1.07 ± 0.026.

For ACAGTGTGTT, which switch fluorescence ratio is on record?
The switch fluorescence ratio was 0.979 ± 0.018.

ACAGTTAATA was tested. Which switch fluorescence ratio did it give?
Its switch fluorescence ratio is 1.06 ± 0.018.

Which switch fluorescence ratio does the source give for ACAGTTATTC here?
Its switch fluorescence ratio is 1.02 ± 0.048.

Which switch fluorescence ratio does the source give for ACAGTTGGGT here?
Its switch fluorescence ratio is 1.002 ± 0.0047.

ACATAAAAGG was tested. Which switch fluorescence ratio did it give?
Its switch fluorescence ratio is 0.994 ± 0.021.

For ACATACATTG, which switch fluorescence ratio is on record?
The switch fluorescence ratio was 1.27 ± 0.061.

With ACATAGGTCA as the sequence, how does the switch fluorescence ratio read?
The switch fluorescence ratio was 1.02 ± 0.022.

With ACATAGGTGA as the sequence, how does the switch fluorescence ratio read?
The switch fluorescence ratio was 1.1 ± 0.069.

For ACATAGTTTG, which switch fluorescence ratio is on record?
Its switch fluorescence ratio is 0.9892 ± 0.0034.

How did the switch fluorescence ratio turn out when ACATATAGAG was run?
Its switch fluorescence ratio is 1.051 ± 0.0097.

For ACATCGGATG, which switch fluorescence ratio is on record?
The switch fluorescence ratio was 0.995 ± 0.025.

Which switch fluorescence ratio does the source give for ACATCGGGAT here?
Its switch fluorescence ratio is 1.017 ± 0.0012.

How did the switch fluorescence ratio turn out when ACATCGGTTC was run?
Its switch fluorescence ratio is 1.02 ± 0.029.

With ACATCTATTC as the sequence, how does the switch fluorescence ratio read?
The switch fluorescence ratio was 1.01 ± 0.034.

With ACATGACAGA as the sequence, how does the switch fluorescence ratio read?
The switch fluorescence ratio was 1.08 ± 0.038.

ACATGACATG was tested. Which switch fluorescence ratio did it give?
Its switch fluorescence ratio is 1.04 ± 0.03.

With ACATGAGAAA as the sequence, how does the switch fluorescence ratio read?
The switch fluorescence ratio was 0.988 ± 0.052.

For ACATGCTGTA, which switch fluorescence ratio is on record?
The switch fluorescence ratio was 0.995 ± 0.024.

With ACATGGGGA as the sequence, how does the switch fluorescence ratio read?
The switch fluorescence ratio was 1.002 ± 0.0018.

With ACATGGGGTT as the sequence, how does the switch fluorescence ratio read?
Its switch fluorescence ratio is 0.998 ± 0.03.

ACATGTAGCG was tested. Which switch fluorescence ratio did it give?
Its switch fluorescence ratio is 0.99 ± 0.021.

ACATGTGGCA was tested. Which switch fluorescence ratio did it give?
The switch fluorescence ratio was 1.04 ± 0.018.

ACATTAACTA was tested. Which switch fluorescence ratio did it give?
Its switch fluorescence ratio is 1.09 ± 0.019.

How did the switch fluorescence ratio turn out when ACATTCATCG was run?
The switch fluorescence ratio was 1.06 ± 0.034.

ACATTCCTGT was tested. Which switch fluorescence ratio did it give?
The switch fluorescence ratio was 1.05 ± 0.046.

Which switch fluorescence ratio does the source give for ACATTCTGGA here?
Its switch fluorescence ratio is 0.988 ± 0.031.

With ACATTGAGGT as the sequence, how does the switch fluorescence ratio read?
The switch fluorescence ratio was 1.01 ± 0.048.

Which switch fluorescence ratio does the source give for ACATTGTTTT here?
The switch fluorescence ratio was 1.02 ± 0.021.

How did the switch fluorescence ratio turn out when ACATTTATCT was run?
Its switch fluorescence ratio is 1.02 ± 0.02.

Which switch fluorescence ratio does the source give for ACATTTATGG here?
The switch fluorescence ratio was 0.999 ± 0.021.

How did the switch fluorescence ratio turn out when ACATTTGGGT was run?
The switch fluorescence ratio was 1.0104 ± 0.00044.

For ACATTTTTAT, which switch fluorescence ratio is on record?
The switch fluorescence ratio was 1.03 ± 0.015.

Which switch fluorescence ratio does the source give for ACATTTTTTT here?
The switch fluorescence ratio was 1.01 ± 0.029.

ACCAAACCGG was tested. Which switch fluorescence ratio did it give?
The switch fluorescence ratio was 1.039 ± 0.0079.

With ACCAAAGGCG as the sequence, how does the switch fluorescence ratio read?
Its switch fluorescence ratio is 1.04 ± 0.043.

How did the switch fluorescence ratio turn out when ACCAACCGTG was run?
The switch fluorescence ratio was 1.1028 ± 0.00051.

With ACCACGTGAC as the sequence, how does the switch fluorescence ratio read?
Its switch fluorescence ratio is 1.51 ± 0.035.

For ACCAGCGAAT, which switch fluorescence ratio is on record?
Its switch fluorescence ratio is 1.06 ± 0.043.
